B1: L-Yr-13&14-17 (Fc fusion)
chain: QVQLQESGGGLVQAGGSLRLSCAASRSIFSSYVMAWYRQAPGKERELVALIRYGGSTDYADSVKGRFTISRDNSKNTLILQMNSLKPEDTAMYYCAASKSAYIFDDRDYWGQGTQVTVSSTHTCPPCPAPEAAGGPSVFLFPPKPKDTLMISRTPEVTCVVVDVSHEDPEVKFNWYVDGVEVHNAKTKPREEQYNSTYRVVSVLTVLHQDWLNGKEYKCKVSNKALPAPIEKTISKAKGQPREPQVYTLPPSREEMTKNQVSLTCLVKGFYPSDIAVEWESNGQPENNYKTTPPVLDSDGSFFLYSKLTVDKSRWQQGNVFSCSVMHEALHNHYTQKSLSLSPG
B2: A-Ye-03 (Fc fusion)
chain: QVQLQESGGGLVQAGGSLRLSCAASGFTLDYYAIGWFRQAPGKEREGVLCISSSGETTYYSDSVKGRFTISRDNAKNKVYLQMNSLKPEDTAVYYCGAELLGSGEGCYVWSRDGSYWGQGTQVTVSSTHTCPPCPAPEAAGGPSVFLFPPKPKDTLMISRTPEVTCVVVDVSHEDPEVKFNWYVDGVEVHNAKTKPREEQYNSTYRVVSVLTVLHQDWLNGKEYKCKVSNKALPAPIEKTISKAKGQPREPQVYTLPPSREEMTKNQVSLTCLVKGFYPSDIAVEWESNGQPENNYKTTPPVLDSDGSFFLYSKLTVDKSRWQQGNVFSCSVMHEALHNHYTQKSLSLSPG
B3: A-Ye-13 (Fc fusion)
chain: EVQLQESGGGLVQAGGSLRLSCAASGFTFDDYAIGWFRQAPGKEREGVLCISSSGGSTYYADSVKGRFTISRDNAKNTVYLQMTNLKPEDTAVYLCGAPRDCSYYTGDDYWGQGTQVTVSSTHTCPPCPAPEAAGGPSVFLFPPKPKDTLMISRTPEVTCVVVDVSHEDPEVKFNWYVDGVEVHNAKTKPREEQYNSTYRVVSVLTVLHQDWLNGKEYKCKVSNKALPAPIEKTISKAKGQPREPQVYTLPPSREEMTKNQVSLTCLVKGFYPSDIAVEWESNGQPENNYKTTPPVLDSDGSFFLYSKLTVDKSRWQQGNVFSCSVMHEALHNHYTQKSLSLSPG
B4: L-Yr-13&14-13 (Fc fusion)
chain: QVQLQESGGGLVQAGDSLRLSCAASGSTFSITAMGWYRQPPGKQRELVASIITGDGDTNYADSVKGRFTISRDNAKNTMYLQMNSLKPEDTAVYYCYARTGYGSSWLMGHEYDYWGQGTQVTVSSTHTCPPCPAPEAAGGPSVFLFPPKPKDTLMISRTPEVTCVVVDVSHEDPEVKFNWYVDGVEVHNAKTKPREEQYNSTYRVVSVLTVLHQDWLNGKEYKCKVSNKALPAPIEKTISKAKGQPREPQVYTLPPSREEMTKNQVSLTCLVKGFYPSDIAVEWESNGQPENNYKTTPPVLDSDGSFFLYSKLTVDKSRWQQGNVFSCSVMHEALHNHYTQKSLSLSPG
B5: L-Yr-13&14-10 (Fc fusion)
chain: QVQLQESGGGLVQAGGSLRLSCAASGSTFSITAMGWYRQAPGQQRELVAAIASGDGATNYADFVKGRFTISRDNAKNTMFLQMNSLKPEDSAVYYCYARTGYGSSWLMGHEYDYWGQGTQVTVSSTHTCPPCPAPEAAGGPSVFLFPPKPKDTLMISRTPEVTCVVVDVSHEDPEVKFNWYVDGVEVHNAKTKPREEQYNSTYRVVSVLTVLHQDWLNGKEYKCKVSNKALPAPIEKTISKAKGQPREPQVYTLPPSREEMTKNQVSLTCLVKGFYPSDIAVEWESNGQPENNYKTTPPVLDSDGSFFLYSKLTVDKSRWQQGNVFSCSVMHEALHNHYTQKSLSLSPG
B6: L-Yr-13&14-08 (Fc fusion)
chain: QVQLQESGGGLVQPGGSLRLSCAASGSTFSISAMGWYRQPPGKQRELVALIIMSDGDTNYQDSVKGRFTISRDNANNTMYLQMNSLKLEDTAVYYCYARTGYGSGRLMGHEYDYWGQGTQVTVSSTHTCPPCPAPEAAGGPSVFLFPPKPKDTLMISRTPEVTCVVVDVSHEDPEVKFNWYVDGVEVHNAKTKPREEQYNSTYRVVSVLTVLHQDWLNGKEYKCKVSNKALPAPIEKTISKAKGQPREPQVYTLPPSREEMTKNQVSLTCLVKGFYPSDIAVEWESNGQPENNYKTTPPVLDSDGSFFLYSKLTVDKSRWQQGNVFSCSVMHEALHNHYTQKSLSLSPG
B7: L-Yr-13&14-07 (Fc fusion)
chain: QVQLQESGGGLVQAGDSLRLSCAASGSTFGITAMGWYRQPPGKQRELVAAIIMSDGDTNYQDSVKGRFTISRDNAKNTMYLQMNSLKLEDTAVYYCYARTGYGSGRLMGHEYDYWGQGTQVTVSSTHTCPPCPAPEAAGGPSVFLFPPKPKDTLMISRTPEVTCVVVDVSHEDPEVKFNWYVDGVEVHNAKTKPREEQYNSTYRVVSVLTVLHQDWLNGKEYKCKVSNKALPAPIEKTISKAKGQPREPQVYTLPPSREEMTKNQVSLTCLVKGFYPSDIAVEWESNGQPENNYKTTPPVLDSDGSFFLYSKLTVDKSRWQQGNVFSCSVMHEALHNHYTQKSLSLSPG
B8: L-Yr-13&14-09 (Fc fusion)
chain: QVQLQESGGGLVQAGGSLKLSCAASGSTFSISAMGWYRQAPGKQRELVAAIVIGDGDTNYADSVKGRFTISRDNAKNTMYLQMNSLKPEDTAVYYCYARTGYGSSWLMGHEYDYWGQGTQVTVSSTHTCPPCPAPEAAGGPSVFLFPPKPKDTLMISRTPEVTCVVVDVSHEDPEVKFNWYVDGVEVHNAKTKPREEQYNSTYRVVSVLTVLHQDWLNGKEYKCKVSNKALPAPIEKTISKAKGQPREPQVYTLPPSREEMTKNQVSLTCLVKGFYPSDIAVEWESNGQPENNYKTTPPVLDSDGSFFLYSKLTVDKSRWQQGNVFSCSVMHEALHNHYTQKSLSLSPG
B9: L-Yr-13&14-11 (Fc fusion)
chain: QVQLQESGGGLVQAGDSLRLSCAASGSTFSITAMGWYRQPPGKQRELVAAIIMSDGDTNYQDSVKGRFTISRDNAKNTMYLQMNSLKLEDTAVYYCYARTGYGSGRLMGHEYDYWGQGTQVTVSSTHTCPPCPAPEAAGGPSVFLFPPKPKDTLMISRTPEVTCVVVDVSHEDPEVKFNWYVDGVEVHNAKTKPREEQYNSTYRVVSVLTVLHQDWLNGKEYKCKVSNKALPAPIEKTISKAKGQPREPQVYTLPPSREEMTKNQVSLTCLVKGFYPSDIAVEWESNGQPENNYKTTPPVLDSDGSFFLYSKLTVDKSRWQQGNVFSCSVMHEALHNHYTQKSLSLSPG
B10: L-Yr-13&14-02 (Fc fusion)
chain: QVQLQESGGGLVQAGGSLRLSCAASGGTFSITAMGWYRQAPGQQRELVAAIASGDGATNYADFVKGRFTISRDNAKNTMFLQMNSLKPEDSAVYYCYARTGYGSSWPMGHEYDYWGQGTQVTVSSTHTCPPCPAPEAAGGPSVFLFPPKPKDTLMISRTPEVTCVVVDVSHEDPEVKFNWYVDGVEVHNAKTKPREEQYNSTYRVVSVLTVLHQDWLNGKEYKCKVSNKALPAPIEKTISKAKGQPREPQVYTLPPSREEMTKNQVSLTCLVKGFYPSDIAVEWESNGQPENNYKTTPPVLDSDGSFFLYSKLTVDKSRWQQGNVFSCSVMHEALHNHYTQKSLSLSPG
B11: L-Yr-13&14-12 (Fc fusion)
chain: QVQLQESGGGLVQAGDSLRLSCAASGSTFSITAMGWYRQPPGKQRELVAAIIMSDGDTNYQDSVKGRFTISRDNAKNTMYLQMNSLKPEDTAVYYCYARTGYGSGWLEGHEYDYWGQGTQVTVSSTHTCPPCPAPEAAGGPSVFLFPPKPKDTLMISRTPEVTCVVVDVSHEDPEVKFNWYVDGVEVHNAKTKPREEQYNSTYRVVSVLTVLHQDWLNGKEYKCKVSNKALPAPIEKTISKAKGQPREPQVYTLPPSREEMTKNQVSLTCLVKGFYPSDIAVEWESNGQPENNYKTTPPVLDSDGSFFLYSKLTVDKSRWQQGNVFSCSVMHEALHNHYTQKSLSLSPG
B12: A-Na-16 (Fc fusion)
chain: QVQLVESGGGLVPPGESLRLSCAASGAIFRINTGAWYRQAPGKQRELVASLTTYGKTTYADFVKGRFTISRDDARNTVSLQMNSLKPEDTAIYYCHIGPEPRYGYWGQGTQVTVSSTHTCPPCPAPEAAGGPSVFLFPPKPKDTLMISRTPEVTCVVVDVSHEDPEVKFNWYVDGVEVHNAKTKPREEQYNSTYRVVSVLTVLHQDWLNGKEYKCKVSNKALPAPIEKTISKAKGQPREPQVYTLPPSREEMTKNQVSLTCLVKGFYPSDIAVEWESNGQPENNYKTTPPVLDSDGSFFLYSKLTVDKSRWQQGNVFSCSVMHEALHNHYTQKSLSLSPG
B13: A-Na-19 (Fc fusion)
chain: QVQLVESGGGLVPPGESLRLSCAASGAIFRINTGAWYRQAPGKQRELVASLTTYGKTTYADFVKGRFTISRDDAKNTVYLQMNSLKPEDTAIYYCHIGPEPRYGYWGQGTQVTVSSTHTCPPCPAPEAAGGPSVFLFPPKPKDTLMISRTPEVTCVVVDVSHEDPEVKFNWYVDGVEVHNAKTKPREEQYNSTYRVVSVLTVLHQDWLNGKEYKCKVSNKALPAPIEKTISKAKGQPREPQVYTLPPSREEMTKNQVSLTCLVKGFYPSDIAVEWESNGQPENNYKTTPPVLDSDGSFFLYSKLTVDKSRWQQGNVFSCSVMHEALHNHYTQKSLSLSPG
B14: A-Ye-04 (Fc fusion)
chain: QVQLQESGGGLVPPGESLRLSCAASGAIFRINTGAWYRQAPGKQRELVASLTTYGKTTYADFVKGRFTISRDDAKNTVSLQMNSLKPEDTAIYYCHIGPEPRYGYWGQGTQVTVSSTHTCPPCPAPEAAGGPSVFLFPPKPKDTLMISRTPEVTCVVVDVSHEDPEVKFNWYVDGVEVHNAKTKPREEQYNSTYRVVSVLTVLHQDWLNGKEYKCKVSNKALPAPIEKTISKAKGQPREPQVYTLPPSREEMTKNQVSLTCLVKGFYPSDIAVEWESNGQPENNYKTTPPVLDSDGSFFLYSKLTVDKSRWQQGNVFSCSVMHEALHNHYTQKSLSLSPG
B15: A-Na-18 (Fc fusion)
chain: QVQLVESGGGLVPPGESLRLSCAASGAIFRINTGAWYRQAPGKQRELVASLTTYGKTTYADFVKGRFTISRDDAENTVSLQMNSLKPEDTAIYYCHIGPEPRYGYWGQGTQVTVSSTHTCPPCPAPEAAGGPSVFLFPPKPKDTLMISRTPEVTCVVVDVSHEDPEVKFNWYVDGVEVHNAKTKPREEQYNSTYRVVSVLTVLHQDWLNGKEYKCKVSNKALPAPIEKTISKAKGQPREPQVYTLPPSREEMTKNQVSLTCLVKGFYPSDIAVEWESNGQPENNYKTTPPVLDSDGSFFLYSKLTVDKSRWQQGNVFSCSVMHEALHNHYTQKSLSLSPG

For this assay, the target named is T1, 4-1BB antigen (human, UniProt Q07011 24-186, limits assumed).
T1 construct: also called human 4-1BB antigen; human 4-1BB protein
T1 sequence (Q07011 24-186 limits assumed): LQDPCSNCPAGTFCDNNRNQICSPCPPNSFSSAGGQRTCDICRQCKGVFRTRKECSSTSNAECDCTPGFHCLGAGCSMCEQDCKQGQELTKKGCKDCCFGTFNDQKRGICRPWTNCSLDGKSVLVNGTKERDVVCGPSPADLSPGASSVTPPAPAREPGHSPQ
Description: BLI (ForteBio), antibody on AHQ sensor, 100 nM 4-1BB antigen, 1:1 model. As to the method: ForteBio affinity determination was performed according to the existing method (Estep, P et al., Solution-based measurement of high-throughput antibody-antigen affinity and epitope classification, MAbs, 2013.5(2):p. 270-8). Briefly, the sensor was equilibrated offline for 30 min in the assay buffer, then the baseline was established by detection online for 60 s, and the purified antibody obtained as described above was loaded onto the AHQ sensor online. Then, the sensor was put into 100 nM 4-1BB antigen to act for 5 minutes, and the sensor was transferred to PBS and dissociated for 5 minutes. Analysis of kinetics was performed using a 1:1 binding model.
In general terms: In BLI a coated tip is dipped into the sample, and binding shifts an interference pattern.
What is called Kd is the free concentration of one partner at which half of the binding sites on the other are occupied at equilibrium, for simple one-to-one binding. Low readings indicate tighter binding, high ones weaker binding. Molecule B1 had an equilibrium dissociation constant (Kd) of 25.1 nM.

Molecule B2 registered a Kd of 28.3 nM.

B3 had a Kd of 11.9 nM.

Turning to B4, the affinity, expressed as Kd, was 23.2 nM. This Kd is about 1.9-fold higher than that of the molecule before.

In turn, B5 gave a dissociation constant Kd of 46 nM.

The molecule B6 yielded a Kd of 20.5 nM.

In turn, B7 came in with a Kd of 14.3 nM. The Kd values of the last two molecules are within 1.5-fold of each other.

B8 returned a Kd of 21 nM. This Kd and that of the molecule before are within 1.5-fold of each other.

B9: the affinity, expressed as Kd, was 21.6 nM. This Kd and that of the molecule before are within 1.5-fold of each other.

In the case of B10, the equilibrium dissociation constant (Kd) came to 44.7 nM.

As to B11, the affinity, expressed as Kd, was 30.8 nM.

B12 returned a Kd of 20.8 nM. The Kd values of the last two molecules are within 1.5-fold of each other.

As to B13, the Kd was found to be 15.1 nM.

In turn, B14 came in with a Kd of 222 nM.

On to B15, for which the Kd worked out at 17.5 nM.

The values above are taken from patent US20230357422A1 (published 2023).
